Measurements published in patent US20100273186A1, “SPLIT MUTANT HYDROLASE FUSION REPORTER AND USES THEREOF” (Promega Corporation, priority 2007, published 2010).

B1: DhaA.WT: wild type Rhodococcus rhodochrous dehalogenase (DhaA), SEQ ID NO:1 (protein, listed as Rhodococcus rhodochrous)
chain: MSEIGTGFPFDPHYVEVLGERMHYVDVGPRDGTPVLFLHGNPTSSYLWRNIIPHVAPSHRCIAPDLIGMGKSDKPDLDYFFDDHVRYLDAFIEALGLEEVVLVIHDWGSALGFHWAKRNPERVKGIACMEFIRPIPTWDEWPEFARETFQAFRTADVGRELIIDQNAFIEGALPKCVVRPLTEVEMDHYREPFLKPVDREPLWRFPNELPIAGEPANIVALVEAYMNWLHQSPVPKLLFWGTPGVLIPPAEAARLAESLPNCKTVDIGPGLHYLQEDNPDLIGSEIARWLPAL
B2: DhaA.D106C:H272F: DhaA double mutant D106C and H272F (protein, UniProt P0A3G2 1-293, looked up, variant D106C H272F)
Haloalkane dehalogenase: MSEIGTGFPFDPHYVEVLGERMHYVDVGPRDGTPVLFLHGNPTSSYLWRNIIPHVAPSHRCIAPDLIGMGKSDKPDLDYFFDDHVRYLDAFIEALGLEEVVLVIHCWGSALGFHWAKRNPERVKGIACMEFIRPIPTWDEWPEFARETFQAFRTADVGRELIIDQNAFIEGALPKCVVRPLTEVEMDHYREPFLKPVDREPLWRFPNELPIAGEPANIVALVEAYMNWLHQSPVPKLLFWGTPGVLIPPAEAARLAESLPNCKTVDIGPGLFYLQEDNPDLIGSEIARWLPAL
B3: DhaA.D106C: DhaA mutant, Asp106 replaced with Cys (protein, UniProt P0A3G2 1-293, looked up, variant D106C)
Haloalkane dehalogenase: MSEIGTGFPFDPHYVEVLGERMHYVDVGPRDGTPVLFLHGNPTSSYLWRNIIPHVAPSHRCIAPDLIGMGKSDKPDLDYFFDDHVRYLDAFIEALGLEEVVLVIHCWGSALGFHWAKRNPERVKGIACMEFIRPIPTWDEWPEFARETFQAFRTADVGRELIIDQNAFIEGALPKCVVRPLTEVEMDHYREPFLKPVDREPLWRFPNELPIAGEPANIVALVEAYMNWLHQSPVPKLLFWGTPGVLIPPAEAARLAESLPNCKTVDIGPGLHYLQEDNPDLIGSEIARWLPAL
B4: DhaA.D106E: DhaA single mutant D106E (protein, UniProt P0A3G2 1-293, looked up, variant D106E)
Haloalkane dehalogenase: MSEIGTGFPFDPHYVEVLGERMHYVDVGPRDGTPVLFLHGNPTSSYLWRNIIPHVAPSHRCIAPDLIGMGKSDKPDLDYFFDDHVRYLDAFIEALGLEEVVLVIHEWGSALGFHWAKRNPERVKGIACMEFIRPIPTWDEWPEFARETFQAFRTADVGRELIIDQNAFIEGALPKCVVRPLTEVEMDHYREPFLKPVDREPLWRFPNELPIAGEPANIVALVEAYMNWLHQSPVPKLLFWGTPGVLIPPAEAARLAESLPNCKTVDIGPGLHYLQEDNPDLIGSEIARWLPAL

Legend:
[1] = Binding of substrate to DhaA mutants
Text: (§1) Carboxytetramethylrhodamine-C10H21NO2—Cl, carboxyfluorescein-C10H21NO2—Cl, and 5-carboxy-X-rhodamine-C10H21NO2—Cl bound to DhaA.H272F but not to DhaA.WT. Biotin-C10H21NO2—Cl bound to DhaA.H272F but not to DhaA.WT.

[2] = Binding of substrate to DhaA mutants; remark: listed apart in the source
Text: as §1
DhaA.H272 mutants, i.e. H272F/G/A/Q, bound to carboxytetramethylrhodamine-C10H21NO2—Cl.
A control mutant, DhaA.D106Q, single mutants DhaA.D106C, DhaA.D106Y, and DhaA.D106E, as well as double mutants DhaA.D106C:H272F, DhaA.D106E:H272F, DhaA.D106Q:H272F, and DhaA.D106Y:H272F were analyzed for binding to carboxytetramethylrhodamine-C10H21NO2—Cl. Carboxytetramethylrhodamine-C10H21NO2—Cl bound to DhaA.D106C, DhaA.D106C:H272F, DhaA.D106E, and DhaA.H272F. Thus, the bond formed between carboxytetramethylrhodamine-C10H21NO2—Cl and cysteine or glutamate at residue 106 in a mutant DhaA is stable relative to the bond formed between carboxytetramethylrhodamine-C10H21NO2—Cl and DhaA.WT. Other substitutions at position 106 alone or in combination with substitutions at other residues in DhaA may yield similar results. Further, certain substitutions at position 106 alone or in combination with substitutions at other residues in DhaA may result in a mutant DhaA that forms a bond with only certain substrates.

| Molecule | binding to 5-carboxy-X-rhodamine-C10H21NO2—Cl [1] | binding to Biotin-C10H21NO2—Cl [1] | binding to carboxyfluorescein-C10H21NO2—Cl [1] | binding to carboxytetramethylrhodamine-C10H21NO2—Cl [2] |
| --- | --- | --- | --- | --- |
| B1 | not | not | not | not |
| B2 |  |  |  | bound |
| B3 |  |  |  | bound |
| B4 |  |  |  | bound |
